Measurements from US20090286962A1 (published 2009).
Numbering of substitutions follows the chain as printed. Values belong to the binder of their own block, whether it stands above or below them.

Target: T1, TNF (UniProt P01375 77-233)
T1 construct: also called TNF-α; Tumor Necrosis Factor-α
Assay: ELISA on solid-phase TNF (screen of the affinity maturation libraries)

T1 sequence (P01375 77-233 limits assumed): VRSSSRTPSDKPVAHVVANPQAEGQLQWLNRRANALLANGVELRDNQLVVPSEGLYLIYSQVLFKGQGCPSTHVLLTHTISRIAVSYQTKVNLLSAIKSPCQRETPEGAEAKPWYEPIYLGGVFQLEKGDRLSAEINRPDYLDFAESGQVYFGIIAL

- binding result: binds
B1: Compound 100 (other)
VL: DIQMTQSPSSLSASVGDRVTITCRASQSIDSYLHWYQQKPGKAPKLLIYSASNLETGVPSRFSGSGSGTDFTLTISSLLPEDFATYYCQQVVWRPFTFGQGTKVEIKR
notes: Domain antibody (dAb); also called anti-TNF dAb Compound 100

- binding result: binds
B2: Compound 123 (other)
VL: B1 VL with S28A, L79Q
notes: Domain antibody (dAb)
